{
  "source": "patent CN102731650A",
  "about": "(SICHUAN HUIYU PHARMACEUTICAL CO LTD, dated 2012)",
  "binders": {"B1": {"name": "A2 (light-chain shuffled clone, Fab on phage) (Fab, V domains shown)", "VH": "not shown", "VL": "DIQLTQSPSSLSASLGDKVTITCRASQHIKKYLNWYQQKPGKAPKLLIYGALNLQSGVPSRFSGRGSGTDFTLTISSLQPEDFATYYCQQSYSTPFTFGPGTKVDIKR"}},
  "biological_target": "T1, SP62 (biotin-labelled peptide containing the 2F5 epitope sequence) (HIV-1, biotin-labelled (position not given))",
  "T1 construct": "The results speak of the 'MPER peptide' or 'peptide'; also called 2F5多肽; gp41 MPER多肽",
  "T1 peptide": "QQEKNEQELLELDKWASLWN",
  "test": "ELISA",
  "data": [
    {"binder": "B1", "values": [
      {"measurement": "binding result", "result": "binds"}
    ]}
  ]
}
